No end group written: not given here. Cy3 = Cy3 fluorescent dye label

This is an account of results in patent US20210087231A1 (UNIVERSITY OF MARYLAND BALTIMORE, published 2021).

The target of one assay is T1, MyD88-Cer (UniProt Q99836 155-296).
T1 construct: The vector is 'described previously'; Expressed in HeLa cells; also called MyD88 TIR-Cer; Cer-labeled MyD88 TIR; not shown: Cerulean fluorescent protein (Cer)
As to the kind of experiment: FRET-FLIM in HeLa cells expressing the Cer fusion, Cy3-peptide 1 h. The method, then: (§1) To identify potential binding partners of inhibitory peptides a FRET approach coupled with Fluorescence Lifetime Imaging Microscopy (FLIM) was used. HeLa cells were transiently transfected with an expression vector that encodes a TIR domain fused with Cerulean fluorescent protein (Cer). Cells were treated with various concentrations of a Cy3-labeled inhibitory peptide 48 hours after transfection. Cy3 is a suitable FRET acceptor for Cer fluorescence. A direct molecular interaction of a Cy3-labeled peptide with Cer-fused TIR domain should quench Cer fluorescence, leading to a decreased fluorescence lifetime.
(§2) A progressive shift of average fluorescence lifetime towards lower values observed with increasing peptide concentrations indicates the binding between donor and acceptor moieties. […] FRET efficiencies presented in FIG. 13 were calculated from the average lifetimes corresponding to entire images that contained multiple cells as in images shown in FIG. 11, using data obtained in three independent experiments. […]
(§3) The strongest peptide-induced quenching was detected for the TLR9 TIR-Cer-expressing cells treated with Cy3-9R34-ΔN. This peptide quenched the TLR9 TIR-Cer fluorescence dose-dependently with FRET efficiency varying in the range of 9-23% (FIG. 13). […]

A further assay has as its target T2, TRAM-Cer (UniProt Q86XR7 1-235).
T2 construct: Control construct expressed in HeLa cells; not shown: Cerulean fluorescent protein (Cer)
The assay is described as above. The method, then: as §1, §2, §3

T2 sequence (Q86XR7 whole entry): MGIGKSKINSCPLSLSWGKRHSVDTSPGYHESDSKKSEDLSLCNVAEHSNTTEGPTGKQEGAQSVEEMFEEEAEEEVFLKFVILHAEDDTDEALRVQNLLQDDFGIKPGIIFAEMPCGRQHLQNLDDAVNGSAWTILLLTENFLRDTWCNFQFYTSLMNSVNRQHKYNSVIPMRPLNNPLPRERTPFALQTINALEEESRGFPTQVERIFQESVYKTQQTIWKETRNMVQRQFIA
T1 sequence (Q99836 155-296): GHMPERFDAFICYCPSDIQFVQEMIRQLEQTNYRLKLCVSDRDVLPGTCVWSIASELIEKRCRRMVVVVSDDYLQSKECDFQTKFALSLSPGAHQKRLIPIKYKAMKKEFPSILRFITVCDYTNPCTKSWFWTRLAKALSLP

B1: Cy3-9R34-ΔN (peptide)
peptide: Cy3-RQIKIWFQNRRMKWKKALRLCLEERD
notes: Cy3-labeled cell-permeating decoy peptide (CPDP); also called 9R34-ΔNa; peptide from Surface 1 (S1) of TLR9
Take B1: the binding result in the assay with MyD88-Cer is “no binding (tested: 2.5 and 10 µM)”; with TRAM-Cer, “no binding (tested: 40 µM)”.
